Test results reported in US8487082B2, “Synthetic scFv analogue to the 6313/G2 (anti angiotensin II type 1 receptor) monoclonal antibody variable regions” (Queen Mary & Westfield College, priority 2008, dated 2013).
“Also recorded” adds a separate entry of the source.

B1: HuCY: humanised (resurfaced) variant of scFv R6313/G2, SEQ ID NO:27 (protein)
scFv: QVQLVQSGPELVKPGASVKISCKASGYSFTGYNMNWVKQAPGKSLEWIGNIDPYYGGTTYNQKFKGKATLTVDKSSSTAYMQLKSLRSEDTAVYYCAREVDYWGQGTTVTVSSGGGGSGGGGSGGGGSDIVLTQSPASLAVSLGERATISCRASKSVSTSGYSYMHWYQQKPGQPPRLLIYLVSNLESGVPDRFSGSGSGTDFTLTISSVEAEDVAVYYCQHIRELTRSEGTKLEIKR
modifications: HuCY
B2: var4: humanised variant of scFv R6313/G2 with two further changes in VLCDR2 (LVSDLED), SEQ ID NO:29 (protein)
scFv: QVQLVQSGPELVKPGASVKISCKASGYSFTGYNMNWVKQAPGKGLEWIGNIDPYYGGTTYNQKFKGKATLTVDKSSSTAYMQLKSLRSEDTAVYYCAREVDYWGQGTTVTVSSGGGGSGGGGSGGGGSDIVLTQSPASLAVSLGERATISCRASKSVSTSGYSYMHWYQQKPGQPPRLLIYLVSDLEDGVPDRFSGSGSGTDFTLTISSVEAEDVAVYYCQHIRELTRSEGTKLEIKR
modifications: var4
B3: var3: humanised variant of scFv R6313/G2, framework changes only, SEQ ID NO:28 (protein)
scFv: QVQLVQSGPELVKPGASVKISCKASGYSFTGYNMNWVKQAPGKGLEWIGNIDPYYGGTTYNQKFKGKATLTVDKSSSTAYMQLKSLRSEDTAVYYCAREVDYWGQGTTVTVSSGGGGSGGGGSGGGGSDIVLTQSPASLAVSLGERATISCRASKSVSTSGYSYMHWYQQKPGQPPRLLIYLVSNLESGVPDRFSGSGSGTDFTLTISSVEAEDVAVYYCQHIRELTRSEGTKLEIKR
modifications: var3

Key:
T47D cells [1] = assay: Apoptosis - caspase-3/7 activity; assay type: cell-based; settings: 100 nmol/L angiotensin II, 12 hours
Description: Cells were harvested using Trypsin/EDTA and counted.

MCF-7 cells = assay: Cell viability assay (XTT); assay type: cell-based; settings: MCF-7, Losartan alone, all concentrations used
Method: (§1) MCF-7, T47D and MDA-MB-231 breast cancer cells were obtained from The American Tissue Culture Collection (LGC Promochem, Teddington, UK). Rat aortic smooth muscle cells (RASMC) were developed from primary culture (Barker et al., 1996). MCF-7 cells were maintained in Minimal Essential Medium (MEM), T47D and MDA-MB-231 cells in RPMI 1640 medium, and RASMC were maintained in Dulbecco's Modified Eagle's Medium (DMEM). All media were supplemented with 2 mM L-glutamine, 10% fetal bovine serum (FBS), 50 U/ml penicillin and 0.05 mg/ml streptomycin. Cells were maintained at 37° C. in a humidified atmosphere ([…], 5% CO2).
(§2) Confluent cell monolayers were removed from tissue culture flasks using trypsin/EDTA. Cells (15×10^3 per well) were seeded into 96 well tissue culture plates containing the appropriate medium for each cell line. […] Cell viability was assessed by the ability of metabolically active cells to reduce 2,3-bis[2-Methoxy-4-nitro-5-sulphophenyl]-2H-tetrazolium-5-carboxyanilide inner salt (XTT) to the coloured formazan product. Absorbance was measured using a Multiskan Ascent microplate reader (Thermo Labsystem, Helsinki, Finland) at a wavelength of 450 nm and a reference wavelength of 630 nm. Each measurement was performed in triplicate. IC50s were calculated using a non-linear regression formula using GraphPad Prism v4.0 software (GraphPad Software Inc, San Diego Calif., USA).

MDA-MB-231 cells = assay: Cell viability assay (XTT); assay type: cell-based; settings: MDA-MB-231, Losartan alone, all concentrations used
Method: as §1, §2

T47D cells [2] = assay: Cell viability assay (XTT); assay type: cell-based; settings: Homo sapiens, Losartan alone, 25 μmol/L
Method: as §1, §2

[3] = molecular target: peptide antigen EDGIKRIQDDC-biotin (from AT1-receptor N-terminal region) (Rattus norvegicus, UniProt P25095); assay: Antigen binding ELISA of scFv variants; settings: for activity in ELISA compared with murine scFv (12D): FIG. 13, indirect comparison against purified IgM; for binding to peptide antigen by ELISA versus murine scFv (12D and 11B): absorbance 450 nm per mg protein/well, FIG. 12
Method: Enzyme-linked immunosorbant assays (ELISAs) were carried out in Maxisorp 96-well plates coated with Peptide antigen EDGIKRIQDDC-biotin (SEQ ID NO:14) (2-8 ug/ml in carbonate buffer pH 9.6) overnight at 4 or 37 C. The coated wells were blocked using 1% alkaline soluble casein (Blocking buffer) for 1 h at RT, then washed three times with PBS containing 0.1% v/v Tween 20. ScFv samples diluted between 1:1 to 1:100 in PBS-T were added and incubated for 1 h at RT before washing as before. A secondary HRP-conjugated anti-His-Tag antibody was then added (diluted 1:1000 in blocking buffer) for 1 h at RT. Wells were then washed three times in PBS-T then twice with PBS (without Tween 20). 100 μl of TMB substrate solution was added and colour was allowed to develop for 30 min, at which time 100 μl of 2M sulphuric acid was added to stop the reaction. Absorbance at 450 nm was read on a plate reading spectrophotometer. Protein concentrations were determined using an Eppendorf Biophotometer reading at 280 nm and using an extinction coefficient for the scFv of 1.7 as above.

[4] = molecular target: biotinylated peptide antigen (AT1 receptor) (Rattus norvegicus, UniProt P25095); assay: Quartz crystal microbalance binding (Attana 100); settings: 9 μg/ml, 100 second injection period
Method: Data were obtained comparing the characteristics of binding of the scFv variants and IgM to immobilised peptide antigen using the Attana 100 Quartz Crystal Microbalance. This involved use of a streptavidin (0.1 mg/ml)-coated biotin “chip” (gold-plated quartz crystal in an Attana 100 Biosensor (Quartz crystal microbalance (QCM)) (Attana AB, Stockholm, Sweden). Peptide antigen corresponding to that sequence used to raise the original murine hybridoma, biotinylated at the C-terminus, was then run across the chip at a concentration of 4 μg/ml to create a binding target for scFvs and IgM that were subsequently run across the surface of the QCM chip. Attester software (Attana, Sweden) was used to monitor changes in resonance frequency of the QCM chip in response to binding of a test antibody to the antigen. The magnitude of deflection in Hz over the period of sample injection of 100 s in Hz/second was determined for each antibody at a concentration of 9 μg/ml. The rate at which the antibody was then released from the QCM chip was also measured in Hz/second from the straight-line portion of the biosensor trace as antibody gradually departed from the chip and as the resonance frequency of the chip decreased. Running buffer was PBS containing 0.005% Tween 20 (PBST) and this was also used to make antibody dilutions to give a final protein concentration of 9 μg/ml in each case. The Attana 100 was set up with a 50 μl injection loop and was running with a constant pump speed of 20 μl/min. Samples and PBST buffer controls were injected over 100 seconds giving a sample volume across the chip of 33 μl. 100 mM (6.6 μl volume) phosphoric acid solution was used to regenerate the strepavidin-antigen surface between individual experimental sample runs.

Row | Molecule | activity in ELISA compared with murine scFv (12D) [3] | binding to peptide antigen by ELISA versus murine scFv (12D and 11B) [3] | change in resonance frequency (apparent on-rate, Hz/second) compared with IgM [4] | other results
1 | angiotensin II (DRVYIHPF; Angiotensin-2; UniProt P01019 25-32, looked up) [peptide hormone added at 100 nmol/L in the cell assays, reference compound] | – | – | – | caspase-3/7 activity compared with untreated control (T47D cells [1]): inhibited caspase-3/7 activity
2 | CCCCc1nc(Cl)c(CO)n1Cc1ccc(-c2ccccc2-c2nn[nH]n2)cc1 [Losartan, reference compound] | – | – | – | effect on cell survival (MCF-7 cells): unaffected; effect on cell survival (MDA-MB-231 cells): unaffected; inhibition at 25 µM (T47D cells [2]): 43%
3 | B1 | higher activity | more strongly; also recorded: increased binding | – | –
4 | B2 | higher activity | more strongly; also recorded: increased binding; also recorded: most significantly increased binding | significantly greater increases in resonance frequency; also recorded: significantly greater changes in resonance frequency | increase in binding to the antigen compared with murine scFv ([3]; ELISA, same amount and purity of scFv): 5-10 fold
5 | B3 | – | more strongly; also recorded: increased binding | significantly greater increases in resonance frequency; also recorded: significantly greater changes in resonance frequency | –
